Target: T1, TriTAC 75
T1 construct: Single-chain MSLN/albumin/CD3 trispecific protein, 6xHis
Assay: Affinity measurement, method not stated; row 'Kd huCD3E' (faint print)

T1 sequence (chain, as listed by the source): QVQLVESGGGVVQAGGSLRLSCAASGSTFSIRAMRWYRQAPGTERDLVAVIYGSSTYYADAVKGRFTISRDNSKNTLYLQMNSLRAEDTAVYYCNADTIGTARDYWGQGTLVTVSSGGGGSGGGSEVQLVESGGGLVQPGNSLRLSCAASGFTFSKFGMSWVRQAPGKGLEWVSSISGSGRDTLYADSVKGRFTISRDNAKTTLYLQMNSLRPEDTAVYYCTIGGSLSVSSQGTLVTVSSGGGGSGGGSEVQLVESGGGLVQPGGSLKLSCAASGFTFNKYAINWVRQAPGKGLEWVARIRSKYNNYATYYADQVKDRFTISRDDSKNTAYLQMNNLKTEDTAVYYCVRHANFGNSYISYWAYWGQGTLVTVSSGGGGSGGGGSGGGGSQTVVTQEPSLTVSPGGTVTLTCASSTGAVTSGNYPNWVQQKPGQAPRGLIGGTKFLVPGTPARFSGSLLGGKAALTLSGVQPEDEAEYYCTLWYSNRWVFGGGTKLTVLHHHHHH

B1: human CD3ε (receptor, UniProt P07766 23-126, looked up)
chain: DGNEEMGGITQTPYKVSISGTTVILTCPQYPGSEILWQHNDKNIGGDEDDKNIGSDEDHLSLKEFSELEQSGYYVCYPRGSKPEDANFYLYLRARVCENCMEMD
notes: also called human CD3c (so in the source)
Work on B1 yielded a Kd of 10 nM.

Source: patent publication US20200270362A1 (HARPOON THERAPEUTICS, published 2020)
